{
  "source": "patent US20240002495A1",
  "about": "(MITSUBISHI TANABE PHARMA, published 2024)",
  "binders": {"B1": {"name": "A10-1C04 (IgG) (antibody, V domains shown)", "VH": "EVQLLESGGGLVQPGGSLRLSCAASGFTFSDYYMNWVRQAPGKGLEWVSSISRYSSYIYYADSVKGRFTISRDNSKNTLYLQMNSLRAEDTAVYYCARDIGGMDVWGQGTLVTVSS", "VL": "QSVLTQPPSASGTPGQRVTISCTGSSSNIGAVYDVHWYQQLPGTAPKLLIYRNNQRPSGVPDRFSGSKSGTSASLAISGLRSEDEADYYCQTYDSSRWVFGGGTKLTVL", "notes": "tested as neutral-purified and as alkaline-purified antibody; also called V1; IGN1"}},
  "key": {"[1]": {"target": "T1, 6His-AviTag-linked cynomolgus monkey IL-33 (residues 112 to 269) (cynomolgus monkey, UniProt O95760 112-269 (human entry), biotin on the AviTag portion (BirA) in the SPR of Example 7; used without biotinylation in Example 10)", "T1 chain": "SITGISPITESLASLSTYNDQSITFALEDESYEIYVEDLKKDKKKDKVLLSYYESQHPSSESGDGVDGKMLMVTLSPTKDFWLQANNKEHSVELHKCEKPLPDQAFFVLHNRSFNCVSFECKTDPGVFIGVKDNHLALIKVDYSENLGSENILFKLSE", "assay": "cell-based or functional assay"}, "[2]": {"target": "T2, recombinant human IL-33 protein (residues 112 to 270) (ILC0701, ATGen Co. Ltd) (human, UniProt O95760 112-270)", "T2 sequence": "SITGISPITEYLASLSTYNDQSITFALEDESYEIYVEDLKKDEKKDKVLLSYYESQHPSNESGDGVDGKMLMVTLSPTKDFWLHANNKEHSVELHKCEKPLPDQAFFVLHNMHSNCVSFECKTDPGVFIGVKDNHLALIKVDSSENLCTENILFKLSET", "assay": "cell-based or functional assay"}, "[3]": {"target": "T3, full-length human IL-33 protein (human, UniProt O95760 1-270)", "T3 construct": "also called Human IL-33 (Full-Length)", "T3 sequence": "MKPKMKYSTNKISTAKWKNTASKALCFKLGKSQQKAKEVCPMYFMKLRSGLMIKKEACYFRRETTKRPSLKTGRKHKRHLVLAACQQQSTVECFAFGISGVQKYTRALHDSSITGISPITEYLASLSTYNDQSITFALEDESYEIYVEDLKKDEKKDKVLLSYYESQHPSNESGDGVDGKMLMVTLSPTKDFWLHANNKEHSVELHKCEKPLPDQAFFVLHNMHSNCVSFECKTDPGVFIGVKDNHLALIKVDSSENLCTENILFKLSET", "assay": "KinExA in PBS, alkaline-purified IgG", "experimental": "(§1) Mixture samples of a test antibody and a human IL-33 protein (ILC0701, available from ATGen Co. Ltd) were prepared. The human IL-33 protein was titrated to a constant concentration of test antibody (final concentration: several tens of pM to several hundreds of pM) over a wide concentration range of the human IL-33 protein (so that it covered the concentrations of the human IL-33 protein resulting from 12-step serial doubling dilutions, i.e. one- to 2048-fold, with the upper limit of final concentration set to several nM to several tens of nM). The mixture samples were incubated at a room temperature until the antigen-antibody reaction reached equilibrium. After the reaction reached equilibrium, the percentage of free anti-IL-33 antibody in each sample was analyzed using KinExA3200. The values of Kd were calculated by fitting the plot of percentages of anti-IL-33 antibody not bound to the human IL-33 protein (vertical axis) and concentrations of antigen (horizontal axis) to a theoretical formula, using a KinExA data analysis program (KinExA Pro Software v3.5.3, available from Sapidyne Instruments, Inc.). Beads for capturing the anti-IL-33 antibody were prepared by suspending 50 mg of Azlactone beads (Sapidyne) in 1 mL of coating solution (10 μg/mL human IL-33 protein (ILC0701, available from ATGen Co. Ltd), 50 mM sodium carbonate at pH of 9.6) and incubating the solution at a room temperature for one hour. The antibody for detection used was anti-human F(ab)′2-DyLight649 (Jackson, 309-495-006)."}, "[4]": {"target": "T2, recombinant human IL-33 protein …", "assay": "KinExA in PBS, alkaline-purified IgG", "experimental": "as §1"}, "[5]": {"target": "T2, recombinant human IL-33 protein …", "assay": "SPR (Biacore T200), human IL-33 (ILC0701) immobilized on CM5, Calibration Free Concentration Analysis of the preserved antibody against a control-preserved sample", "experimental": "Each alkaline-purified antibody was dissolved in a citrate buffer (50 mM citric acid; 150 mM NaCl (pH: 6.3)) at a concentration of about 10 mg/mL, and was preserved at a temperature of 40° C. for four weeks, to evaluate the preservation stability of each test antibody (IgG). For evaluation of the monomer purity of each antibody after the preservation, monomer purity was measured by size exclusion chromatography analysis (SEC) and microchip capillary SDS electrophoresis (mCE-SDS), and antigen-binding activity was measured by surface plasmon resonance.\nIn order to confirm the presence of the antigen-binding ability after the preservation, the antigen-binding activity was measured with a surface plasmon resonance system, Biacore T200 (available from GE Healthcare). A human IL-33 protein (ILC0701, available from ATGen Co. Ltd) was immobilized onto a Sensor Chip CM5 (GE Healthcare) (the amount of immobilized protein was about 3000 to 6000 RU) with Amine Coupling Kit (GE Healthcare). Each preserved antibody solution was then diluted to 10-fold with a citric buffer (50 mM citric acid, 150 mM NaCl (pH: 6.3)), and the resulting solution was analyzed to measure the total protein concentration in the solution, using a microvolume spectrophotometer, Astragene II (Astranet Systems, Ltd.) (protein concentration: about 1 mg/mL). The antibody solution after the measurement of the total protein concentration was diluted to 1000-fold with HBS-EP buffer (10 mM HEPES, 150 mM NaCl, 3 mM EDTA, 0.05% (v/v) Surfactant P20 (at pH of 7.4)). The analyte was thereby prepared. The measurement temperature was 25° C. Each analyte was added for 36 seconds at two flow rates of 5 μL/min and 100 μL/min to obtain sensorgrams of the association phase. The sensorgrams were then analyzed by Calibration Free Concentration Analysis using a data analysis program (GE Healthcare, Biacore T200 Evaluation Software v1.0) to determine the concentration of the antibody having antigen-binding activity. As control, each test antibody after preservation at a temperature of 4° C. for four weeks was also analyzed to confirm the antigen-binding activity, to calculate the ratio of antigen-binding activity of each test antibody after the preservation at a temperature of 40° C. for four weeks."}},
  "data": [
    {"binder": "B1", "values": [
      {"measurement": "IC50 of inhibition of IL-6 production by HUVEC (alkaline-purified IgG, cynomolgus monkey IL-33 100 ng/mL, not biotinylated)", "setting": "[1]", "result": 0.43, "unit": "µg/mL"},
      {"measurement": "IC50 of inhibition of IL-6 production by HUVEC (alkaline-purified IgG, human IL-33 100 ng/mL)", "setting": "[2]", "result": 0.35, "unit": "µg/mL"},
      {"measurement": "inhibition of IFN-γ production by human PBMC (alkaline-purified IgG 10 ug/mL, IL-33 10 ng/mL, IL-12 10 ng/mL)", "setting": "[2]", "result": 96.9, "unit": "%"},
      {"measurement": "inhibition of production of IL-5 and IL-13 by KU-812 cells (alkaline-purified IgG 1 ug/mL; IL-33 3 ng/mL with IL-3 and C5a)", "setting": "[2]", "result": "≥ 50", "unit": "%"},
      {"measurement": "percentage of inhibition (%) of IL-6 production by HUVEC (neutral-purified IgG 1 ug/mL, IL-33 100 ng/mL)", "setting": "[2]", "result": 67, "unit": "%"},
      {"measurement": "Kd", "setting": "[3]", "result": 0.18, "unit": "nM"},
      {"measurement": "Kd", "setting": "[4]", "result": 0.1, "unit": "nM"},
      {"measurement": "% Active IgG (antigen binding activity after preservation at 40 C for 4 W)", "setting": "[5]", "result": 99.3, "unit": "%"}
    ]}
  ]
}
